# B1: UGDH (uridine diphosphate glucose dehydrogenase): S350A (protein)
# parent chain: MFEIKKICCIGAGYVGGPTCSVIAHMCPEIRVTVVDVNESRINAWNSPTLPIYEPGLKEVVESCRGKNLFFSTNIDDAIKEADLVFISVNTPTKTYGMGKGRAADLKYIEACARRIVQNSNGYKIVTEKSTVPVRAAESIRRIFDANTKPNLNLQVLSNPEFLAEGTAIKDLKNPDRVLIGGDETPEGQRAVQALCAVYEHWVPREKILTTNTWSSELSKLAANAFLAQRISSINSISALCEATGADVEEVATAIGMDQRIGNKFLKASVGFGGSCFQKDVLNLVYLCEALNLPEVARYWQQVIDMNDYQRRRFASRIIDSLFNTVTDKKIAILGFAFKKDTGDTRESSSIYISKYLMDEGAHLHIYDPKVPREQIVVDLSHPGVSEDDQVSRLVTISKDPYEACDGAHAVVICTEWDMFKELDYERIHKKMLKPAFIFDGRRVLDGLHNELQTIGFQIETIGKKVSSKRIPYAPSGEIPKFSLQDPPNKKPKV
# B2: UGDH (uridine diphosphate glucose dehydrogenase): TMG (50 μM) (protein)
# parent chain: B1 parent chain
# B3: UGDH (uridine diphosphate glucose dehydrogenase): OGT co-expression (protein)
# parent chain: B1 parent chain
# Columns and labels:
# [1] = Flag-KPNA2 pull-down, HEK293T, IFNγ; details: glycan lost; control: cells expressing UGDH WT
# [2] = NADH OD340 assay, Flag-purified protein; details: glycan lost; control: WT UGDH from HEK293T
# [3] = steady-state kinetics, Michaelis-Menten fit; details: glycan lost; control: WT UGDH from HEK293T
# [4] = HABP immunofluorescence and competitive ELISA; details: glycan lost; control: UGDH-KO A549 rescued with WT UGDH
# [5] = NADH OD340 assay, Flag-purified from HEK293T; details: glycan gained; control: WT UGDH, no OGT co-expression or TMG
Protein,other: KPNA2-STAT1 association in cells [1],enzymatic_activity [2],"enzymatic_activity, kcat_Km [3]",other: cellular hyaluronic acid level [4],enzymatic_activity [5]
B1,increases,decreases,"decreases, 0.576 vs 5.07, Km value of 37.7 μM for the S350A, which was 3-fold higher than that of the WT with a Km value of 11.4 μM",decreases,
B2,,,,,increases
B3,,,,,increases

# Reference: publication PMC13036090
